Where two headings read alike, the source gives them in different places. Blank lines part the entries; values can stand above or below the binder they belong to.
Key:
human 4-1BB on cells [1] = molecular target: T1, human 4-1BB on cells (human, UniProt Q07011 24-255); experiment: flow cytometry on HEK293/h4-1BB cells, APC anti-human secondary
T1 construct: The engineered lines were transduced with NM_001561, amino acids M1 to L255; Residues 1-23 are stated to be the signal peptide; The UniProt number is printed as 007011; This entry also stands for 4-1BB on the Jurkat reporter cells and on primary T cells in the functional assays; also called h4-1BB; TNFRSF9
Description: (§1) The ability of the multispecific antigen binding molecules to bind cells was assessed using flow cytometry. Cell lines were chosen to determine the ability of both the anti-CD38 and anti-4-1BB arms to bind their targets. […] Binding was detected by using a labeled secondary antibody and measuring fluorescence on a flow cytometer.
HEK293 and HEK293/4-1BB cells were lifted with trypsin, washed and resuspended in stain buffer (2% FBS in PBS) and added to wells of a 96 well V-bottom plate (3×10⁵ cells/well). A 1:5, 9-point, dose titration of test antibodies was diluted in stain buffer and added to cells to a final concentration ranging from 1.3 pM to 100 nM (a “no antibody” control was included as the ninth point ([…]) labeled as “secondary only”). Cells and antibodies were incubated for 30 min on ice and then washed in stain buffer. Cells were resuspended in 2 ug/ml allophycocyanin (APC) conjugated goat-anti human secondary antibody and incubated for 30 min on ice. Cells were then washed and resuspended in viability dye (according to the manufacturer's protocol) and incubated for 30 min on ice. Cells were then washed with stain buffer and resuspended in 2% PFA for 30 min on ice. After washing, cells were filtered and analyzed by flow cytometry to determine the geometric mean fluorescence intensity (gMFI), which was subsequently plotted using GraphPad Prism software. EC₅₀ values of the antibodies were determined from a 4-parameter logistic equation over a 9-point dose response curve (including secondary only control).

[2] = molecular target: T2, human CD38 endogenously expressed on MOLP8 cells (human, UniProt P28907 1-300); experiment: flow cytometry on MOLP8 cells (endogenous hCD38), APC anti-human secondary
T2 construct: whole, on cells; also called hCD38
Description: as §1
HEK293 cells were lifted with trypsin, washed and resuspend in stain buffer (2% FBS in PBS). MOLP8 cells were washed and resuspended in stain buffer. Cells were added to wells of a 96 well V-bottom plate (3×10⁵ cells/well). A 1:4, 9-point, dose titration of test antibodies was diluted in stain buffer and added to cells to a final concentration ranging from 610 fM to 10 nM (a “no antibody” control was included as the ninth point (153fM), labeled as “secondary only”). Cells and antibodies were incubated for 30 min on ice and then washed in stain buffer. Cells were resuspended in 2 ug/ml allophycocyanin (APC) conjugated goat-anti human secondary antibody and incubated for 30 min on ice. Cells were then washed and resuspended in viability dye (according to the manufacturer's protocol) and incubated for 30 min on ice. Cells were then washed with stain buffer and resuspended in 2% PFA for 30 min on ice. After washing, cells were filtered and analyzed by flow cytometry to determine the geometric mean fluorescence intensity (gMFI), which was subsequently plotted using GraphPad Prism software. EC₅₀ values of the antibodies were determined from a 4-parameter logistic equation over a 9-point dose response curve (including secondary only control, representing the ninth point).

human 4-1BB on cells [3] = molecular target: T1, human 4-1BB on cells; experiment: cell-based or functional assay
human 4-1BB on cells [4] = molecular target: T1, human 4-1BB on cells; experiment: cell-based or functional assay; remark: listed apart in the source
human 4-1BB on cells [5] = molecular target: T1, human 4-1BB on cells; experiment: cell-based or functional assay; remark: listed apart in the source

T1 sequence (Q07011 24-255): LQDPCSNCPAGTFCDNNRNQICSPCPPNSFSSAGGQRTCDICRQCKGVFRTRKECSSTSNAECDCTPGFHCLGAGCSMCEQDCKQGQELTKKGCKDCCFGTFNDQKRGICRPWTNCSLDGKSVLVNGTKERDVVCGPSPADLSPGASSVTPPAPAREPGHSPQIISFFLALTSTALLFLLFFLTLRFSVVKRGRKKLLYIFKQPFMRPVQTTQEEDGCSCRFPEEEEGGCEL

- EC50 (human 4-1BB on cells [1]): 2.86 nM
- MAX gMFI (human 4-1BB on cells [1]): 2.4e+06 gMFI
- MAX gMFI [2]: 210000 gMFI
- EC50 of IL-2 release, T cells + HEK293/CD20/CD38 + REGN1979 (human 4-1BB on cells [3]): ~0.1 nM
- EC50 of IL-2 release, T cells + MOLP-8 + REGN5458 (human 4-1BB on cells [3]): 63.4 nM
- MAX IL-2 release, T cells + HEK293/CD20 + REGN1979 (human 4-1BB on cells [3]): 182 pg/mL
- MAX IL-2 release, T cells + HEK293/CD20/CD38 + IsoC (human 4-1BB on cells [3]): 12 pg/mL
- MAX IL-2 release, T cells + HEK293/CD20/CD38 + REGN1979 (human 4-1BB on cells [3]): 1300 pg/mL
- MAX IL-2 release, T cells + MOLP-8 + IsoC (human 4-1BB on cells [3]): 163 pg/mL
- MAX IL-2 release, T cells + MOLP-8 + REGN5458 (human 4-1BB on cells [3]): 308 pg/mL
- EC50 of IL-2 release, T cells + NALM-6 (human 4-1BB on cells [4]): 0.108 nM
- MAX IL-2 release, T cells + HEK293/CD20 + REGN2281 (human 4-1BB on cells [4]): 63 pg/mL
- MAX IL-2 release, T cells + HEK293/CD20/CD38 + REGN2281 (human 4-1BB on cells [4]): 593 pg/mL
- MAX IL-2 release, T cells + MOLP-8 + IsoC (human 4-1BB on cells [4]): 48 pg/mL
- MAX IL-2 release, T cells + MOLP-8 + REGN5458 (human 4-1BB on cells [4]): 32 pg/mL
- MAX IL-2 release, T cells + NALM-6 (human 4-1BB on cells [4]): 122 pg/mL
- EC50 of IFNγ release, T cells + HEK293/CD20/CD38 + REGN2281 (human 4-1BB on cells [5]): 0.78 nM
- EC50 of IFNγ release, T cells + MOLP-8 + REGN5458 (human 4-1BB on cells [5]): 43.8 nM
- MAX IFNγ release, T cells + HEK293/CD20 + REGN2281 (human 4-1BB on cells [5]): 1840 pg/mL
- MAX IFNγ release, T cells + HEK293/CD20/CD38 + REGN2281 (human 4-1BB on cells [5]): 3950 pg/mL
- MAX IFNγ release, T cells + MOLP-8 + IsoC (human 4-1BB on cells [5]): 56 pg/mL
- MAX IFNγ release, T cells + MOLP-8 + REGN5458 (human 4-1BB on cells [5]): 1300 pg/mL
- MAX IFNγ release, T cells + NALM-6 (human 4-1BB on cells [5]): 620 pg/mL
B1: REGN7150 (bispecific antibody, human IgG4 S228P, kappa)
heavy 1: QVQLVQSGAEVKKPGSSVKVSCKASGGPFRSSSFSWVRQAPGQGLEWMGGIIPILGKTNYAQKFQGRITIVTDESTTTVYMELSSLRSEDTAVFYCVRGSSLFDYWGQGTLVTVSSASTKGPSVFPLAPCSRSTSESTAALGCLVKDYFPEPVTVSWNSGALTSGVHTFPAVLQSSGLYSLSSVVTVPSSSLGTKTYTCNVDHKPSNTKVDKRVESKYGPPCPPCPAPPVAGPSVFLFPPKPKDTLMISRTPEVTCVVVDVSQEDPEVQFNWYVDGVEVHNAKTKPREEQFNSTYRVVSVLTVLHQDWLNGKEYKCKVSNKGLPSSIEKTISKAKGQPREPQVYTLPPSQEEMTKNQVSLTCLVKGFYPSDIAVEWESNGQPENNYKTTPPVLDSDGSFFLYSRLTVDKSRWQEGNVFSCSVMHEALHNHYTQKSLSLSLGK
heavy 2: QVQLVQSGAEVKKPGASVKVSCKASAYTFTSYGFSWVRQAPGQGLEWMGWISTSNGYTNYAQKIQDRVTMTTDTSTSTAYMELRSLRSDDTAVYYCASLSNWVSFFDYWGQGTLVTVSSASTKGPSVFPLAPCSRSTSESTAALGCLVKDYFPEPVTVSWNSGALTSGVHTFPAVLQSSGLYSLSSVVTVPSSSLGTKTYTCNVDHKPSNTKVDKRVESKYGPPCPPCPAPPVAGPSVFLFPPKPKDTLMISRTPEVTCVVVDVSQEDPEVQFNWYVDGVEVHNAKTKPREEQFNSTYRVVSVLTVLHQDWLNGKEYKCKVSNKGLPSSIEKTISKAKGQPREPQVYTLPPSQEEMTKNQVSLTCLVKGFYPSDIAVEWESNGQPENNYKTTPPVLDSDGSFFLYSRLTVDKSRWQEGNVFSCSVMHEALHNRFTQKSLSLSPGK
light: not shown
notes: 1+1 format control, hIgG4P-PVA, common 3-20 light chain; also called CD38x4-1BB (1 + 1); 26871P2 x 25921P

- MAX gMFI [2]: 88000 gMFI
B2: REGN7633 (bispecific antibody, human IgG4 S228P, kappa)
heavy 1: QVQLVQSGPEVKNPGAAVKVSCKASGYTFTRFGISWVRQAPGQGLEWMGWISVDNGNANYAQRFQGRVTMTTDTSTSTAYMELRSLRSDDTAVYYCAREWSIAAPGYLDYWGQGTLVTVSSASTKGPSVFPLAPCSRSTSESTAALGCLVKDYFPEPVTVSWNSGALTSGVHTFPAVLQSSGLYSLSSVVTVPSSSLGTKTYTCNVDHKPSNTKVDKRVESKYGPPGGGGSGGGGSGGGGSEVQLVESGGGLVQPGRSLRLSCAASGYTFDDYAMHWVRQAPGKGLEWVSGISWISDVIGYADSVKGRFTISRDNAKNSLYLQMNSLRAEDTALYYCAKDNGGIIVATHYYSYGMDVWGQGTTVTVSSASTKGPSVFPLAPCSRSTSESTAALGCLVKDYFPEPVTVSWNSGALTSGVHTFPAVLQSSGLYSLSSVVTVPSSSLGTKTYTCNVDHKPSNTKVDKRVESKYGPPCPPCPAPPVAGPSVFLFPPKPKDTLMISRTPEVTCVVVDVSQEDPEVQFNWYVDGVEVHNAKTKPREEQFNSTYRVVSVLTVLHQDWLNGKEYKCKVSNKGLPSSIEKTISKAKGQPREPQVYTLPPSQEEMTKNQVSLTCLVKGFYPSDIAVEWESNGQPENNYKTTPPVLDSDGSFFLYSRLTVDKSRWQEGNVFSCSVMHEALHNRFTQKSLSLSPGK
heavy 2: EVQLVESGGGLVQPGRSLRLSCAASGFTFDDYAMHWVRQAPGKGLEWVSGISWKSDNIGYADSVKGRFTISRDNAKNSLYLQMNSLRAEDTALYYCAKALGGWKFDYYYGMDVWGQGTTVTVSSASTKGPSVFPLAPCSRSTSESTAALGCLVKDYFPEPVTVSWNSGALTSGVHTFPAVLQSSGLYSLSSVVTVPSSSLGTKTYTCNVDHKPSNTKVDKRVESKYGPPCPPCPAPPVAGPSVFLFPPKPKDTLMISRTPEVTCVVVDVSQEDPEVQFNWYVDGVEVHNAKTKPREEQFNSTYRVVSVLTVLHQDWLNGKEYKCKVSNKGLPSSIEKTISKAKGQPREPQVYTLPPSQEEMTKNQVSLTCLVKGFYPSDIAVEWESNGQPENNYKTTPPVLDSDGSFFLYSRLTVDKSRWQEGNVFSCSVMHEALHNHYTQKSLSLSLGK
light: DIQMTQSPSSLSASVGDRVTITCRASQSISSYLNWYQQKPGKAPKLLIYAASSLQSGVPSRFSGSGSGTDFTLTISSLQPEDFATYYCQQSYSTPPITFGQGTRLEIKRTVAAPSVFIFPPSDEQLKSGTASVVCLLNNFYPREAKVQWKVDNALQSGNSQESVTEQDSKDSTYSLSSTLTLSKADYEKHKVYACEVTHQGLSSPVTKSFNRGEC
notes: 1+2 format, hIgG4P-PVA; also called CD38x4-1BB (1 + 2); 26812P2 x 25889P2 (IN) + 35388P2 (OUT)

From patent publication US20230416396A1 (Regeneron, published 2023)
